In patent US20050164945A1 (published 2005) one finds Ki data, which are given here for one molecule.

One may read the Ki as the equilibrium dissociation constant of an inhibitor or competing ligand from its target.

No end group written: not given here.

The target in this assay is T1, recombinant endotheliase 1 (human, UniProt Q9UL52 192-423, limits assumed).
T1 construct: also called ET1; rET1
T1 sequence: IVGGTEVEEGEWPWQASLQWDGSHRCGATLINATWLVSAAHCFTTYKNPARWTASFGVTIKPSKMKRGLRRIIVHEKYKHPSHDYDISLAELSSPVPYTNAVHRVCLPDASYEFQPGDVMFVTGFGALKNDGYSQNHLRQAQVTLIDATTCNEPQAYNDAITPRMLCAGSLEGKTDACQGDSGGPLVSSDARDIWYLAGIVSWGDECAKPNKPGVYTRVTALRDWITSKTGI
The experiment in a line: inhibition of ET1 activity.

Take AGKWHCKGYAPDCQMWGT (not fully specified (bridges); cysteine pairing not given here, synthetic peptide) [DX-1107]: the Ki is 500 nM.
